Experimental data from article PMC2267099, “Inhibition of Horse Liver Alcohol Dehydrogenase by Methyltin Compounds” (Bioinorganic Chemistry and Applications, 2005).

Substrate: CCO
Assay: purified protein
Type: biochemical, Equus caballus
Conditions: no inhibitor, NAD+ 0.6 mM, pH 9.5 TRIS-HCl 0.05 M, room temperature

B1: alcohol dehydrogenase from horse liver (HLADH) (Equus caballus) (protein)
chain: STAGKVIKCKAAVLWEEKKPFSIEEVEVAPPKAHEVRIKMVATGICRSDDHVVSGTLVTPLPVIAGHEAAGIVESIGEGVTTVRPGDKVIPLFTPQCGKCRVCKHPEGNFCLKNDLSMPRGTMQDGTSRFTCRGKPIHHFLGTSTFSQYTVVDEISVAKIDAASPLEKVCLIGCGFSTGYGSAVKVAKVTQGSTCAVFGLGGVGLSVIMGCKAAGAARIIGVDINKDKFAKAKEVGATECVNPQDYKKPIQEVLTEMSNGGVDFSFEVIGRLDTMVTALSCCQEAYGVSVIVGVPPDSQNLSMNPMLLLSGRTWKGAIFGGFKSKDSVPKLVADFMAKKFALDPLITHVLPFEKINEGFDLLRSGESIRTILTF
notes: commercial native enzyme from horse liver (Fluka AG), full length, used as received
For B1, the Km was 46.7 ± 0.8 mM.
